The labels stand for the following.
T1: human MCAM (melanoma cell adhesion molecule) expressed on transfected CHO cells (human, UniProt P43121 24-646)
T1 construct: also called hMCAM; CD146
T1 chain: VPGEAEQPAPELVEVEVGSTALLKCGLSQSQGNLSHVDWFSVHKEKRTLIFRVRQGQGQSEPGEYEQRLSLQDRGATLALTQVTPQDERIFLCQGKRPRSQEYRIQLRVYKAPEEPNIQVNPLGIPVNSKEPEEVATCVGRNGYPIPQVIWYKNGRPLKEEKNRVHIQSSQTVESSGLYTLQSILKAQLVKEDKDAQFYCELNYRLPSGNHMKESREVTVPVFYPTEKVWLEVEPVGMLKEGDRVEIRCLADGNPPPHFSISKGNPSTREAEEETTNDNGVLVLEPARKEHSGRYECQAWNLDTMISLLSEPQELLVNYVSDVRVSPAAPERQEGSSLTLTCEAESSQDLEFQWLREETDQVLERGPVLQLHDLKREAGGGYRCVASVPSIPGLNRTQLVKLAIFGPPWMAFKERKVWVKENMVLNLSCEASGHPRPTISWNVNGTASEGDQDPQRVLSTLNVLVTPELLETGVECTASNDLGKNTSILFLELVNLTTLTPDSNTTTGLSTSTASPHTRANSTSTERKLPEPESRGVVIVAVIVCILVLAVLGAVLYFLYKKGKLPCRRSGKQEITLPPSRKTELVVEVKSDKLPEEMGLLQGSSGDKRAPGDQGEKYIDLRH

T2: murine MCAM-Fc fusion protein (mouse, UniProt Q8R2Y2 24-563)
T2 construct: extracellular domain; produced in CHO cells; also called mouse MCAM-Fc; mouse MCAMhFc; not shown: fused to human IgG
T2 sequence (looked up): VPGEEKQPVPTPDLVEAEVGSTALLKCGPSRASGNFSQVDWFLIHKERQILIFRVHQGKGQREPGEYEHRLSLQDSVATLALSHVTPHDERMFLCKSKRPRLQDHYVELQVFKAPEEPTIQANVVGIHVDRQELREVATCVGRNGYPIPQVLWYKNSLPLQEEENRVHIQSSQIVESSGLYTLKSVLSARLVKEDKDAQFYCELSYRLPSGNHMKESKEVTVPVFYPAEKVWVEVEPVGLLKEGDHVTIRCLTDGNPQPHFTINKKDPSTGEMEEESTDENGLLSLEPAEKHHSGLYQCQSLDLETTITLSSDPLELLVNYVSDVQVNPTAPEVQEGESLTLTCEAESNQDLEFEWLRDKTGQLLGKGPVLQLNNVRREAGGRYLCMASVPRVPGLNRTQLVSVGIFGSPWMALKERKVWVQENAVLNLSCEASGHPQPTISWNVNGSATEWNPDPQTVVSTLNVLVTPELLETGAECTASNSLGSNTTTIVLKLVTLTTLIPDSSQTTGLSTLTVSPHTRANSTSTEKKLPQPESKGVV

T3: Ig2 domain (mouse, UniProt Q8R2Y2)
T3 construct: isolated domain 2; also called Murine MCAM domain 2 (Ig2) with human IgG Fc tag
T3 sequence (Fc fusion chain, looked up): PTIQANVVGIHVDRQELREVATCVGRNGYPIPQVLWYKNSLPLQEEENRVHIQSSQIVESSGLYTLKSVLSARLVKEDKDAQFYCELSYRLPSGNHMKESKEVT

T4: Murine MCAM domain 1 (Ig1) with human IgG Fc tag (mouse, UniProt Q8R2Y2 24-131, limits assumed)
T4 construct: domain: domain 1 (Ig1); also called MCAM Fc domain 1; Fc domain 1 alone; not shown: human IgG Fc tag
T4 sequence (looked up): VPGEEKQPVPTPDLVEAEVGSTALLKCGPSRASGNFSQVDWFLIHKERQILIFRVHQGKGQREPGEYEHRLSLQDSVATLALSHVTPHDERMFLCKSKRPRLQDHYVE

T5: mouse MCAM expressed on transfected CHO cells (mouse, UniProt Q8R2Y2 24-648)
T5 construct: whole, on cells; also called murine MCAM
T5 sequence (looked up): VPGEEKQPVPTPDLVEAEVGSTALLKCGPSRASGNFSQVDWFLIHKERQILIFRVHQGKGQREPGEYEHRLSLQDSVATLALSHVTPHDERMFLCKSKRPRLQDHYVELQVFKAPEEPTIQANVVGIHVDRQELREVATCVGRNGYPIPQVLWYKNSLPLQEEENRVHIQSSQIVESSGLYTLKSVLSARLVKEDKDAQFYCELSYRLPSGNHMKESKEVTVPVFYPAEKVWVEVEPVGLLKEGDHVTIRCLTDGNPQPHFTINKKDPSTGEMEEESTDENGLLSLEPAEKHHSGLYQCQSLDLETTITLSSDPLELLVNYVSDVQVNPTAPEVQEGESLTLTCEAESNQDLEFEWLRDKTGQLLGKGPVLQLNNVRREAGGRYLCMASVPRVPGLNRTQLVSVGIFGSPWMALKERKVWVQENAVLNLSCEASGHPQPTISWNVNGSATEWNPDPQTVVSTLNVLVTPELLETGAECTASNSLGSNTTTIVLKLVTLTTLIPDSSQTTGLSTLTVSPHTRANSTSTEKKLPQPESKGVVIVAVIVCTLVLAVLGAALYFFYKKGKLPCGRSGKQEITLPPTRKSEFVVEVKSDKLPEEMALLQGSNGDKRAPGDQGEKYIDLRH

B1: anti-MCAM monoclonal antibody clone 15 (antibody, V domains shown)
VH: EVRLVESGGGLVQPGKSMKLSCVASGFKFSNYYMSWVRQAPAKGLEWVASISDGGGDTFCRDLVKGRFTISRDNAKSTLYLQMDSLRPEDTATYYCARRGAAMGGVMDAWGQGTSVTVSS
VL: DIVMTQSPSSLAVSAGETVSIHCKSSQSLLYSGTQKNYLAWFQQKPGQSPKLLIFWASTRQSGVPDRFIGRGSGTDFTLTISGVQAEDLAIYYCQQYYDTLTDTFGAGTKLELKR
notes: rat monoclonal raised against murine MCAM-Fc; also called Anti-MCAM Clone 15; anti-mouse MCAM clone 15
B2: Recombinant human laminin-α4 (R&D systems) (ligand, UniProt Q16363-2 826-1816, looked up)
chain: QVSMMFDGQSAVEVHSRTSMDDLKAFTSLSLYMKPPVKRPELTETADQFILYLGSKNAKKEYMGLAIKNDNLVYVYNLGTKDVEIPLDSKPVSSWPAYFSIVKIERVGKHGKVFLTVPSLSSTAEEKFIKKGEFSGDDSLLDLDPEDTVFYVGGVPSNFKLPTSLNLPGFVGCLELATLNNDVISLYNFKHIYNMDPSTSVPCARDKLAFTQSRAASYFFDGSGYAVVRDITRRGKFGQVTRFDIEVRTPADNGLILLMVNGSMFFRLEMRNGYLHVFYDFGFSGGPVHLEDTLKKAQINDAKYHEISIIYHNDKKMILVVDRRHVKSMDNEKMKIPFTDIYIGGAPPEILQSRALRAHLPLDINFRGCMKGFQFQKKDFNLLEQTETLGVGYGCPEDSLISRRAYFNGQSFIASIQKISFFDGFEGGFNFRTLQPNGLLFYYASGSDVFSISLDNGTVIMDVKGIKVQSVDKQYNDGLSHFVISSVSPTRYELIVDKSRVGSKNPTKGKIEQTQASEKKFYFGGSPISAQYANFTGCISNAYFTRVDRDVEVEDFQRYTEKVHTSLYECPIESSPLFLLHKKGKNLSKPKASQNKKGGKSKDAPSWDPVALKLPERNTPRNSHCHLSNSPRAIEHAYQYGGTANSRQEFEHLKGDFGAKSQFSIRLRTRSSHGMIFYVSDQEENDFMTLFLAHGRLVYMFNVGHKKLKIRSQEKYNDGLWHDVIFIRERSSGRLVIDGLRVLEESLPPTEATWKIKGPIYLGGVAPGKAVKNVQINSIYSFSGCLSNLQLNGASITSASQTFSVTPCFEGPMETGTYFSTEGGYVVLDESFNIGLKFEIAFEVRPRSSSGTLVHGHSVNGEYLNVHMKNGQVIVKVNNGIRDFSTSVTPKQSLCDGRWHRITVIRDSNVVQLDVDSEVNHVVGPLNPKPIDHREPVFVGGVPESLLTPRLAPSKPFTGCIRHFVIDGHPVSFSKAALVSGAVSINSCPAA
notes: also called laminin α-4 chain
B3: human MCAM domain 1 (amino acids 19-129), Fc-tagged (Fc fusion, not shown: a dimerising Fc or GST)
chain: PRVAGVPGEAEQPAPELVEVEVGSTALLKCGLSQSQGNLSHVDWFSVHKEKRTLIFRVRQGQGQSEPGEYEQRLSLQDRGATLALTQVTPQDERIFLCQGKRPRSQEYRIQ
notes: also called MCAM Fc domain 1

The target of assay [1] is T1, human MCAM (melanoma cell adhesion …). As to the kind of experiment: flow cytometry, human MCAM transfected cells mixed with CFSE-labelled untransfected cells.
The target in assay [2] is T2, murine MCAM-Fc fusion protein. As to the kind of experiment: ForteBio Octet Red, anti-human IgG Fc (AHC) biosensors loaded with mouse MCAM-hFc proteins (5 ug/ml), dipped into antibody (5 ug/ml) or SP2 media. From the text: (§1) The following protocol was used: ForteBio Domain Mapping Protocol. ForteBio anti-human IgG Fc biosensors were used to immobilize various mouse MCAMhFc domains including full length mouse MCAMhFc protein on to biosensor surface. These sensors were dipped into either clone 15 or 17 MCAM specific antibody for detection of binding to these domains or full length protein. After loading these samples into a black 96 well plate, the Octet Red was programmed as follows: 60 seconds for baseline #1; 180 seconds for loading various domains; 60 seconds for baseline #2; 180 seconds for association of antibody to domain; and 240 seconds for dissociation of antibody from domain.
(§2) 1. Mouse MCAMhFc final concentration @ 5 ug/ml [0466] 2. Antibody clone 15 or 17 @ 5 ug/ml [0467] 3. ForteBio anti-human IgG Fc Capture (AHC) biosensors for kinetics experiments, cat#18-5060 [0468] 4. […] 5. ForteBio Octet Red machine [0470] 6. Fresh tissue culture medium, DMEM with 20% FCS, was used as buffer for dilution
(§3) For FIGS. 10A-B, clones 15 and 17 were tested against the following protein samples (all have human IgG Fc tag): Murine MCAM; Human Fc full length protein; Murine MCAM domain 1 (Ig1); Murine MCAM domain 2 (Ig2); and Murine MCAM domain 1 and 2 (Ig1-2A).

The next assay concerns the target T3, Ig2 domain. Described as above.
From the text: as §1, §2, §3

Assay [3] addresses T4, Murine MCAM domain 1 (Ig1) with human …. The experiment in a line: ForteBio Octet Red, domain-hFc on anti-human IgG Fc sensor.
From the text: as §1, §2

For assay [4], the target named is T5, mouse MCAM expressed on transfected CHO …. The experiment in a line: flow cytometry, mouse MCAM transfected cells mixed with CFSE-labelled untransfected cells. The protocol:
For the generation of antibodies capable of binding to murine MCAM, MCAM-Fc was generated by fusing the extracellular domain of murine MCAM to human IgG and produced in CHO cells using standard techniques. Lou/M rats were immunized with 100 μg of MCAM-Fc protein in CFA (1:1 volume). Rats were boosted two times at two week intervals with MCAM-Fc protein in incomplete Freund's adjuvant (IFA) (1:1 volume). Hybridomas were generated from immunized rats using standard protocols and clones were selected by Clonepix. CHO cells were transfected with the full length murine MCAM gene and selected for stable expression using neomycin and standard techniques. Parental CHO cells (MCAM negative) were fluorescently labeled with carboxyfluorescein succinimidyl ester (CFSE) using standard techniques and mixed at a 1:1 ratio with unlabeled MCAM transfected CHO cells. Hybridoma supernatants were incubated with this mixture of cells for 30 minutes and binding of potential MCAM specific antibodies was detected with a fluorescently labeled anti-rat secondary antibody (Jackson Immuno) by flow cytometry.

For assay [5], the target named is T6, recombinant human IgG1 Fc (R&D systems) (human, UniProt P01857-1 100-330 = IgG part).
T6 construct: domain: Fc; negative control surface; also called hIgG1-Fc
As to the kind of experiment: SPR, Biacore T200.

The target in assay [6] is T7, recombinant human laminin 511 (Biolamina) (human, UniProt O15230 36-3695; P07942 22-1786; P11047 34-1609).
T7 construct: negative control; also called laminin 10 (α5β1γ1)
As to the kind of experiment: SPR, Biacore T200.

In assay [7] the target is B2. The experiment in a line: SPR, Biacore T200.

On to B1, for which the binding result is on record as “no binding” in assay [1]; “binds” in assay [2]; “no binding (tested: 5 ug/ml)” in the assay with Ig2 domain; “no binding (tested: 5 ug/ml)” in assay [3]; “binds” in assay [4].
Regarding B2, the binding result in assay [5] is reported as “no binding (tested: 5-175 nM)”.
Consider B3, for which the binding result in assay [6] and in assay [7] was “no binding (tested: 5-175 nM)” each time.

(Values after US20150239980A1 (NEOTOPE BOSCIENCES, published 2015).)
